Experimental data from patent publication US20190194280A1.

Legend:
[1] = target: Serum samples collected at week 16 from patients immunized with UBI AD vaccine (UB-311); assay: comp. ELISA, serum P109
[2] = target: Serum samples collected at week 16 from patients immunized with UBI AD vaccine (UB-311); assay: comp. ELISA, serum P204
[3] = target: Serum samples collected at week 16 from patients immunized with UBI AD vaccine (UB-311); assay: comp. ELISA, serum P201
[4] = target: Serum samples collected at week 16 from patients immunized with UBI AD vaccine (UB-311); assay: comp. ELISA, serum P208
[5] = target: Serum samples collected at week 16 from patients immunized with UBI AD vaccine (UB-311); assay: comp. ELISA, serum P202
[6] = target: Serum samples collected at week 16 from patients immunized with UBI AD vaccine (UB-311); assay: comp. ELISA, serum P206
[7] = target: Serum samples collected at week 16 from patients immunized with UBI AD vaccine (UB-311); assay: comp. ELISA, serum P103
[8] = target: Serum samples collected at week 16 from patients immunized with UBI AD vaccine (UB-311); assay: comp. ELISA, serum P210
[9] = target: Serum samples collected at week 16 from patients immunized with UBI AD vaccine (UB-311); assay: comp. ELISA, serum P105
[10] = target: Serum samples collected at week 16 from patients immunized with UBI AD vaccine (UB-311); assay: comp. ELISA, serum P108
[11] = target: Serum samples collected at week 16 from patients immunized with UBI AD vaccine (UB-311); assay: comp. ELISA, serum P107
[12] = target: Serum samples collected at week 16 from patients immunized with UBI AD vaccine (UB-311); assay: comp. ELISA, serum P104
[13] = target: Serum samples collected at week 16 from patients immunized with UBI AD vaccine (UB-311); assay: comp. ELISA, serum P205
[14] = target: Serum samples collected at week 16 from patients immunized with UBI AD vaccine (UB-311); assay: comp. ELISA, serum P207
[15] = target: Serum samples collected at week 16 from patients immunized with UBI AD vaccine (UB-311); assay: comp. ELISA, serum P102
[16] = target: Serum samples collected at week 16 from patients immunized with UBI AD vaccine (UB-311); assay: comp. ELISA, serum P209
[17] = target: Serum samples collected at week 16 from patients immunized with UBI AD vaccine (UB-311); assay: comp. ELISA, serum P101
[18] = target: Immune sera of baboons immunized with UBI AD vaccine; assay: competitive inhibition ELISA
[19] = target: Serum samples collected at week 16 from patients immunized with UBI AD vaccine (UB-311); assay: comp. ELISA, serum P106
[20] = target: Serum samples collected at week 16 from patients immunized with UBI AD vaccine (UB-311); assay: comp. ELISA, serum P203

B1: Aβ2-11 or APP 770 (A673-E682) (peptide)
peptide: AEFRHDSGYE
For B1, which IC50-based peak height [1] is on record?
Its IC50-based peak height is 0.

What about the IC50-based peak height [2] of the same binder?
The IC50-based peak height was 0.

What about the IC50-based peak height [3] of the same binder?
Its IC50-based peak height is 3.

And the IC50-based peak height [4]?
The IC50-based peak height was 0.

And the IC50-based peak height [5]?
Its IC50-based peak height is 0.

And the IC50-based peak height [6]?
Its IC50-based peak height is 0.

And the IC50-based peak height [7]?
Its IC50-based peak height is 0.

What about the IC50-based peak height [8] of the same binder?
Its IC50-based peak height is 0.

And the IC50-based peak height [9]?
The IC50-based peak height was 0.

And the IC50-based peak height [10]?
Its IC50-based peak height is 0.

And the IC50-based peak height [11]?
Its IC50-based peak height is 0.

What about the IC50-based peak height [12] of the same binder?
Its IC50-based peak height is 0.

And the IC50-based peak height [13]?
Its IC50-based peak height is 0.

What about the IC50-based peak height [14] of the same binder?
Its IC50-based peak height is 0.

What about the IC50-based peak height [15] of the same binder?
The IC50-based peak height was 0.

And the IC50-based peak height [16]?
The IC50-based peak height was 0.

And the IC50-based peak height [17]?
Its IC50-based peak height is 2.

And the % inhibition at 0 µg/mL [18]?
Its % inhibition at 0 µg/mL is 0%.

What about the % inhibition at 0.25 µg/mL [18] of the same binder?
The % inhibition at 0.25 µg/mL was 3%.

What about the % inhibition at 0.5 µg/mL [18] of the same binder?
The % inhibition at 0.5 µg/mL was 0%.

What about the % inhibition at 1 µg/mL [18] of the same binder?
Its % inhibition at 1 µg/mL is 0%.

And the % inhibition at 2 µg/mL [18]?
Its % inhibition at 2 µg/mL is 0%.

And the % inhibition at 8 µg/mL [18]?
The % inhibition at 8 µg/mL was 6%.

And the % inhibition at 32 µg/mL [18]?
Its % inhibition at 32 µg/mL is 19%.

What about the IC50-based peak height [19] of the same binder?
Its IC50-based peak height is 0.

What about the IC50-based peak height [20] of the same binder?
Its IC50-based peak height is 0.

B2: Aβ3-12 or APP 770 (E674-V683) (peptide)
peptide: EFRHDSGYEV
Which results are given for B2?
IC50-based peak height [1]: 0; IC50-based peak height [2]: 0; IC50-based peak height [3]: 0; IC50-based peak height [4]: 0; IC50-based peak height [5]: 0; IC50-based peak height [6]: 0; IC50-based peak height [7]: 0; IC50-based peak height [8]: 0; IC50-based peak height [9]: 0; IC50-based peak height [10]: 0; IC50-based peak height [11]: 0; IC50-based peak height [12]: 0; IC50-based peak height [13]: 0; IC50-based peak height [14]: 0; IC50-based peak height [15]: 0; IC50-based peak height [16]: 0; IC50-based peak height [17]: 0; % inhibition at 0 µg/mL [18]: 0%; % inhibition at 0.25 µg/mL [18]: 1%; % inhibition at 0.5 µg/mL [18]: 1%; % inhibition at 1 µg/mL [18]: 0%; % inhibition at 2 µg/mL [18]: 0%; % inhibition at 8 µg/mL [18]: 0%; % inhibition at 32 µg/mL [18]: 3%; IC50-based peak height [19]: 0; IC50-based peak height [20]: 0

B3: Aβ14-23 or APP 770 (H685-D694) (peptide)
peptide: HQKLVFFAED
How did the IC50-based peak height [1] turn out when B3 was run?
The IC50-based peak height was 0.

What about the IC50-based peak height [2] of the same binder?
The IC50-based peak height was 0.

What about the IC50-based peak height [3] of the same binder?
Its IC50-based peak height is 0.

What about the IC50-based peak height [4] of the same binder?
The IC50-based peak height was 0.

What about the IC50-based peak height [5] of the same binder?
Its IC50-based peak height is 0.

What about the IC50-based peak height [6] of the same binder?
Its IC50-based peak height is 0.

What about the IC50-based peak height [7] of the same binder?
The IC50-based peak height was 0.

And the IC50-based peak height [8]?
The IC50-based peak height was 0.

What about the IC50-based peak height [9] of the same binder?
Its IC50-based peak height is 0.

And the IC50-based peak height [10]?
The IC50-based peak height was 0.

And the IC50-based peak height [11]?
The IC50-based peak height was 0.

And the IC50-based peak height [12]?
The IC50-based peak height was 0.

And the IC50-based peak height [13]?
The IC50-based peak height was 0.

And the IC50-based peak height [14]?
The IC50-based peak height was 0.

What about the IC50-based peak height [15] of the same binder?
The IC50-based peak height was 0.

What about the IC50-based peak height [16] of the same binder?
The IC50-based peak height was 0.

And the IC50-based peak height [17]?
The IC50-based peak height was 0.

And the IC50-based peak height [19]?
Its IC50-based peak height is 0.

And the IC50-based peak height [20]?
Its IC50-based peak height is 0.

B4: Aβ15-24 or APP 770 (Q686-V695) (peptide)
peptide: QKLVFFAEDV
How did the IC50-based peak height [1] turn out when B4 was run?
Its IC50-based peak height is 0.

And the IC50-based peak height [2]?
The IC50-based peak height was 0.

What about the IC50-based peak height [3] of the same binder?
Its IC50-based peak height is 0.

And the IC50-based peak height [4]?
Its IC50-based peak height is 0.

And the IC50-based peak height [5]?
The IC50-based peak height was 0.

What about the IC50-based peak height [6] of the same binder?
The IC50-based peak height was 0.

What about the IC50-based peak height [7] of the same binder?
Its IC50-based peak height is 0.

And the IC50-based peak height [8]?
Its IC50-based peak height is 0.

And the IC50-based peak height [9]?
The IC50-based peak height was 0.

What about the IC50-based peak height [10] of the same binder?
The IC50-based peak height was 0.

And the IC50-based peak height [11]?
The IC50-based peak height was 0.

What about the IC50-based peak height [12] of the same binder?
Its IC50-based peak height is 0.

What about the IC50-based peak height [13] of the same binder?
Its IC50-based peak height is 0.

What about the IC50-based peak height [14] of the same binder?
Its IC50-based peak height is 0.

And the IC50-based peak height [15]?
The IC50-based peak height was 0.

What about the IC50-based peak height [16] of the same binder?
The IC50-based peak height was 0.

What about the IC50-based peak height [17] of the same binder?
The IC50-based peak height was 0.

What about the IC50-based peak height [19] of the same binder?
Its IC50-based peak height is 0.

What about the IC50-based peak height [20] of the same binder?
The IC50-based peak height was 0.
